Results: the nanobody polyreactivity screen of Harvey et al. (2022)

experiment: yeast display, Sf9 membrane polyspecificity reagent, FACS + sequencing; frameworks hold sequencing errors
Procedure, shortened: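 Galactose induction of a Saccharomyces cerevisiae BJ5465 synthetic nanobody display library ran 36–48 hours. The cells were then stained for 1 hour at 4 °C with 10% biotinylated, detergent-solubilized Sf9 membrane reagent, pulled down on streptavidin microbeads and FACS-sorted into low and high (top ~1%) gates on expression and reagent-binding fluorescence. Labels for polyreactivity follow the gate of origin.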

Sequence	polyreactivity (PSR sort gate)
QVQLVESGGGLVQAGGSLRLSCAASGSIFLSNAMVWYRQAPGKERDLVADIDWTGGDTYYADSVKGRFTISRDNAKNTVYLQMNSLKPEDTAVYYCAADYGSRNLLTEYGYWGQGTQVTVSS	low polyreactivity
QVQLVESGGGLVQAGGSLRLSCAASGSIFLSNMGWYRQAPGKERELVAAISRNGGSTYYADSVKGRFTISRDNAKYSVYLQMNSLKPEDTAVYYCAVQRYWGQGTQVTVSS	high polyreactivity
QVQLVESGGGLVQAGGSLRLSCAASGSIFLTYAMGWYRQAPGKERELVAAITDSDGSTSYADSVKGRFTISRDNAKNTVYLQMNSLKPEDTAVYYCAKDFPGRRPPKDPSAFYYWGQGTQVTVSS	low polyreactivity
QVQLVESGGGLVQAGGSLRLSCAASGSIFLVYAMGWYRQAPGKERELVAVITKSGGSTYYADSVKGRFTISRDNAKNTVYLQMNSLKPEDTAVYYCAARRRGARHDYWGQGTQVTVSS	high polyreactivity
QVQLVESGGGLVQAGGSLRLSCAASGSIFLWNAMGWYRQAPGKEREFVASITSRGGSTYYADSVKGRFTISRDNAKNTVYLQMNSLKPEDTAVYYCAAVRSKYWYYQGGYSSYGYWGQGTQVTVSS	high polyreactivity
QVQLVESGGGLVQAGGSLRLSCAASGSIFLWNAMGWYRQAPGKERELVAAISSGTSTNYADSVKGRFTISRDNANNTVYLQMNSLKPEDTAVYYCAARGRKNQRRYGYWGQGTQVTVSS	low polyreactivity
QVQLVESGGGLVQAGGSLRLSCAASGSIFLYNAMGWYRQAPGKERELVAAISKSGGSTYYADSVKGRFTISRDNAKNTVYLQMNSLIPEDTAVYYCAAGYCRRIRYGSEYDYWGQGTQVTVSS	low polyreactivity
QVQLVESGGGLVQAGGSLRLSCAASGSIFLYNAMGWYRQAPGKERELVATITYIGGRTYYADSVKGRFTISRDNAKNTVYLQMNSLKPEDTAVYYCAAEYYVISSPSFYEYDYWGQGTQVTVSS	low polyreactivity
QVQLVESGGGLVQAGGSLRLSCAASGSIFNANAMGWYRQAPGKERELVARITRGGRTNYADSVKGRFTISLDNAKNSVYLQMNSLKPEDTAVYYCAAVYYVGFPHKYDYWGQGTQVTVSS	low polyreactivity
QVQLVESGGGLVQAGGSLRLSCAASGSIFNAYAMGWYRQAPGKERELVAAISKRTSYADSVKGRFTISRDNAKNTVYLQMNSLKPEDTAVYYCANEVDEPDGYEYDYWGQGTQVTVSS	low polyreactivity
QVQLVESGGGLVQAGGSLRLSCAASGSIFNGYDMGWYRQAPGKERELVAAISLSGDSTYYADSVKGRFTISRDNAKNTVYLQMNSLKPEDTAVYYCAAADYFRSYWGQGTQVTVSS	low polyreactivity
QVQLVESGGGLVQAGGSLRLSCAASGSIFNGYVMGWYRQAPGKERELVASINRGGTTNYADSVKGRFTISRDNAKNTVYFQMNSLKPEDTAVYYCAVDDDANSLGGYYVLFDYWGQGTQVTVSS	low polyreactivity
QVQLVESGGGLVQAGGSLRLSCAASGSIFNKYAMGWYRQAPGKEREFVAAITQGGGRTYYADSVKGRFTISRDNAKNTVYLQMNSLKPEDTAVYYCNAAVYSRARGSYRRRYDYWGQGTQVTVSS	high polyreactivity
QVQLVESGGGLVQAGGSLRLSCAASGSIFNKYAMGWYRQAPGKERELVAAISVSGTRTYYADTVKGRFTISRDNAKNTVYLQMNSLKPEDTAVYYCATKFFRTAYESWGQGTQVTVSS	high polyreactivity
QVQLVESGGGLVQAGGSLRLSCAASGSIFNPYTMGWYRQAPGKERELVAAISASGGSTYYADSVKGRFTISRDNAKYTVYLQMNCLKPEDTAVYYCNVYRITRHSYNFGFDYWGQGTQVTVSS	low polyreactivity
QVQLVESGGGLVQAGGSLRLSCAASGSIFNRNVMGWYRQAPGKERELVAAITWSGASTYYADSVKGRFTISRDNAKNTVYLQMNSLKPEDTAVYYCAARGPSRRRDGSDYWGQGTQVTVSS	high polyreactivity
QVQLVESGGGLVQAGGSLRLSCAASGSIFNRYAMGWSRQAPGKARELVPAISRRGAGTYYADSVKGRFTISRDNAKHTVYLQMNSLKPDDTAVYYCAAAGYFPTAGSRRAYYYCGQGTQVTVSS	high polyreactivity
